B1: PdhR-binding site of pdhR-aceEF-lpd operon (dsDNA)
DNA 1: GCCGAAGTCAATTGGTCTTACCAATTTCATGTCTGTG
DNA 2: CACAGACATGAAATTGGTAAGACCAATTGACTTCGGC
B2: Mlc-binding site (ptsG) (dsDNA)
DNA 1: TTGGCAAATTATTTTACTCTGTGTAATAAATAAAGGGCG
DNA 2: CGCCCTTTATTTATTACACAGAGTAAAATAATTCAGTGCCAA

Experiments:
PdhR-His [1] = target: T1, PdhR-His (Escherichia coli K-12 LJ110, UniProt P0ACL9 1-254); experiment: EMSA; no pyruvate; 9-37 pmol PdhR; EMSA, binding buffer and conditions as in ref 17 (not given) plus 0.1 mg/ml herring sperm DNA; 0.1 pmol probe (0.025 pmol for lipA); 6% polyacrylamide gel; pH; conditions: protein: recombinant; tags: C-terminal Penta-His; chain copies: 2; label: 5' DY682 (strand 1); 5' DY782 (strand 2); blunt
PdhR-His [2] = target: T1, PdhR-His; experiment: EMSA; no pyruvate; 18-46 pmol PdhR; EMSA, binding buffer and conditions as in ref 17 (not given) plus 0.1 mg/ml herring sperm DNA; 0.1 pmol probe (0.025 pmol for lipA); 6% polyacrylamide gel; pH; conditions: protein: recombinant; tags: C-terminal Penta-His; chain copies: 2; label: 5' DY782 (strand 1); 5' DY682 (strand 2); as printed, strand 2 has 3 extra nt (CAG opposite a gap in strand 1), possible misprint; blunt ends

T1 sequence (P0ACL9 whole entry): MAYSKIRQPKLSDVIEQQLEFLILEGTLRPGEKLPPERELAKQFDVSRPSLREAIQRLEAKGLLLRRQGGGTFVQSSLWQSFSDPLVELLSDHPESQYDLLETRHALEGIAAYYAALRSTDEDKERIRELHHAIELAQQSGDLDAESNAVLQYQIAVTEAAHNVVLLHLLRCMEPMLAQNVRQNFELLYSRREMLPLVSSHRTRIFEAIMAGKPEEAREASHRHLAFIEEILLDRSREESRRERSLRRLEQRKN

Row | Binder | binding result (PdhR-His [1]) | binding result (PdhR-His [2])
1 | B1 | binds | 
2 | B2 |  | no binding

Reference: publication PMC2936295, “Integrative inference of gene-regulatory networks in Escherichia coli using information theoretic concepts and sequence analysis”
